{
  "source": "patent US20190134606A1",
  "target": "Fab fragment derived from the humanized anti-IgE monoclonal IgG omalizumab (\"Xolair\", Novartis), made by papain digestion",
  "assay": "column breakthrough, 1 mg/mL Fab, HiTrap Protein L column, ligand density 10 mg/mL-gel from the manual",
  "data": [
    {"substance": "Protein L ligand of the commercially available Protein L carrier (\"HiTrap Protein L\" manufactured by GE Healthcare)", "values": [
      {"measurement": "55% DBC", "value": 21.7, "unit": "mg/mL-gel"}
    ]}
  ]
}
